# Data as given in the RNAGym collection of RNA variant scans (doi:10.1073/pnas.2313332121).
# B1: TPR t1 (parent)
# chain: GACCAAUCUGCCCUCAGAGCUCGAGAACAUCUUCGGAUGCAGAGGAGGCAGGCUUCGGUGGCGCGAUAGCGCCAACGUCCUCAACCUCCAAUGCAUCCCACCACAUGAUGAUGCCUGAAGAGCCUUGGUUUUUUG
# Variants of: B1
# Assay: polymerase ribozyme fitness, log enrichment relative to wild type (log ratio); higher = more active; in vitro selection for triplet polymerase activity
# Method in brief: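 A heterodimeric triplet polymerase ribozyme had each of its subunits mutagenized by PCR into a library, which was transcribed. One round of in vitro selection, done in triplicate, annealed each library with a biotinylated primer, its partner subunit and triplets, then incubated it frozen at −7 °C before gel excision of extended constructs, streptavidin-bead capture and RT-PCR. Fitness is the logarithm of genotype enrichment relative to wild-type enrichment, based on Illumina sequencing of inputs and outputs and inverse-variance-weighted replicate averages. A base-2 logarithm is used, and genotypes were kept only with ≥10 input reads and ≥1 read per output.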
row,Variant,polymerase ribozyme fitness (log ratio)
1,A2G G107U,-5.37
2,C3U C15U G39C,-2.34
3,C3A G42A G57C G107U C114U G128U U130C,-4.37
4,A2U G47A C72A A121G,-0.127
5,C3A U21A G71U,-2.65
6,C3A G25U G58C U59G C97U C123A G135U,-6.86
7,C3U C22A U54C C72U C79U C82U A100U,-6.11
8,A2U C13U G77C,-1.85
9,C3G A43U,-3.88
10,C3A C13A C20A A66G G117A,-5.73
11,C3A G71C C114G,-4.21
12,A2G A18U A29G C104G C124U U130G,-4.82
13,A2C A105C,-4.23
14,A2G C20U,-1.26
15,C3U C11A C73G A75U C99G A103U A121G,-7.22
16,C3U A83U,-0.257
17,A2G C12U C56A C97U C124U,0.631
18,C3U C34A C73A,-2.99
19,A2U C62U G117U,-5.02
20,A2G C114A U126C,-4.32
21,C3A C114U,-3.65

row,Variant,polymerase ribozyme fitness (log ratio)
1,C3U A91U G93C G113C G135U,-3.84
2,A2U C15G,-4.66
3,A2C A83U,-1.1
4,A2U C12A G63U C104G U109C,-6.12
5,A2G G63C U116A,-4.03
6,C3A C85U A90U C114U G127C,-2.77
7,A2U C40A G128U,-4.11
8,A2G G61A,0.0396
9,A2G C12U C101U A105U C115A,-1.02
10,A2G C56A,-0.384
11,C3U C53G C88A U112G U129A,-2.53
12,A2G G110U A118G,-1.67
13,C3G G17A G120C,-5.46
14,A2C U59G,-1.54
15,C3G C11A G36C C64U,-3.94
16,C3G A18C C22A A26G G60U A95U G120A,-4.84
17,A2C A5C C62A G128C,-2.75
18,C3U C11G C12A A50U C56G A83U G93C G113U,-5.9
19,C3A G45A,-2.42
20,A2U C22U C86U G110U,-6.04
21,C3A C8A C70G,-3.71

row,Variant,polymerase ribozyme fitness (log ratio)
1,A2G U9G G10U A27C C56G,-3.86
2,A2C C4A G120A,0.58
3,C3G C72G,-2.06
4,A2U G71U A74C,-4.54
5,C3U A43C C73A U87G,-2.3
6,A2U C4A U33G C49G G58C A121C,-5.98
7,A2G G39U G57C A74U U112A C114G,-2.17
8,A2C C62U G110A,-3.07
9,A2U C40U C115A U133G,-2.75
10,A2U G113C,-3.73
11,A2U G113U,-4.15
12,A2U C40U G47U C72U C124A,-3.11
13,A2C C12U G42U A84U C94A U129A,-3.55
14,A2G U55G G71A A95U,-1.12
15,C3U C13U G57U C79U A100C,-0.594
16,A2C C13G C15U C62U,-4.93
17,A2G G45U C82A,-2.5
18,C3A U78C,-0.717
19,C3A U78A,-1.96
20,C3A A66C,-2.64
21,A2G C56A C73U A84U G120U,-1.68

row,Variant,polymerase ribozyme fitness (log ratio)
1,A2G G19U C34U G47A C49A C80A G93C G120U,-6.24
2,C3G G60U U87A,-2.32
3,A2C A50U,-2.44
4,C3A G36A C64U C123G,-0.723
5,C3A U9G G17C U54G G69U A105C G117A,-5.55
6,A2U U32C G48A C49G C64U,-3.23
7,C3G G42C G44U G63U C123A G128C,-3.73
8,C3A C53G C64U A118G C123U,-1.11
9,C3G C40G C72U A121G U130G,-0.331
10,C3G A46U C72A G113C,-3.77
11,A2U A37U C62U C72U U78A C124G,-0.559
12,C3U C40G G63C C115U,-2.66
13,A2C C3G G71C U129A,-4.77
14,C3A C15U C40U C88U,-3.42
15,A2C C12G G69U,0.12
16,C3A C28U G63C,-3.87
17,A2U G39C G45A U132A,-3.5
18,C3G C15A C22G C115U,-4.4
19,A2C G44C,-3.44
20,A2G G120A,0.359
21,A2G C70U U96A,-1.87
